In the test the target is T1, mouse JAM-C on the surface of GL261-233R (JAM-C rescued) and GL261-233RC (JAM-C knock-down) mouse glioma cells (mouse, UniProt Q9D8B7 30-310).
T1 construct: whole, on cells; also called JAM-C on the surface of glioma cells
T1 sequence (looked up): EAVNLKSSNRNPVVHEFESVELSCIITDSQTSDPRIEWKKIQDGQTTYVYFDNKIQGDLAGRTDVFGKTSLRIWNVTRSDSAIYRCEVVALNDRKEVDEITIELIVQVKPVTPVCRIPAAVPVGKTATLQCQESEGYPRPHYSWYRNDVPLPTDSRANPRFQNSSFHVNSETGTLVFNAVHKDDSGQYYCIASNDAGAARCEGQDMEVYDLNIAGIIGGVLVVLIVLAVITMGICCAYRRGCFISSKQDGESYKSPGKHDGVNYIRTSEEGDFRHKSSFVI
Briefly: flow cytometry of sJAM-B-Fc on GL261-233RC and GL261-233R cells (FIG. 22 A, B) and c-Src ELISA. On the procedure:
Cells were then washed with PBS, 0.2% FCS and 0.01% azide and analysed.
Amounts of total c-Src protein and of active phosphorylated-c-Src were quantified using FACE c-Src ELISA kit (Active Motif, CA, USA). […] At day 2, cells were incubated 30 min on ice and then 20 min at 37° C. with recombinant mouse JAM-B/Fc chimera antibody (R&D, MN, USA) at a final concentration of 5 μg/ml. Cells were then fixed and analysed with c-Src ELISA following the manufacturer's instructions (colorimetric Assay for adherent cells).

B1: Recombinant Mouse JAM-B/Fc Chimera (Fc fusion, UniProt Q9JI59 29-236, looked up)
chain: FSASKDHRQEVTVIEFQEAILACKTPKKTTSSRLEWKKVGQGVSLVYYQQALQGDFKDRAEMIDFNIRIKNVTRSDAGEYRCEVSAPTEQGQNLQEDKVMLEVLVAPAVPACEVPTSVMTGSVVELRCQDKEGNPAPEYIWFKDGTSLLGNPKGGTHNNSSYTMNTKSGILQFNMISKMDSGEYYCEARNSVGHRRCPGKRMQVDVLN
notes: extracellular domain; Bought from R&D; also called sJAM-B-Fc chimera; soluble JAM-B; not shown: Fc part, detected with anti-human Fc antibody
Turning to B1, the binding result is “binds”.

(Values after patent US20100034737A1 (published 2010).)
